Values of other authors in paper PMC9898751 (The Journal of Biological Chemistry, 2022).

Key:
H3K9me2 = settings: H3K4me3 present in cis; ref [35]
H3K27me2 = settings: H3K4me3 present in cis; ref [35]
peptide substrates = settings: mass spectrometry– and fluorescence-based demethylase assays on peptide substrates; ref [28]
[1] = phosphorylation by protein kinase A; ref [29]
[2] = system: histone peptide bearing H3K4me3 and H3K9me2 in cis; settings: in contrast to PHF8; ref [28]

Row | Molecule | activity on H3K9me2 with H3K4me3 in cis (H3K9me2) | activity toward H3K27me2 with H3K4me3 in cis (H3K27me2) | enzymatic activity in vitro (peptide substrates) | activity before phosphorylation [1] | activity on single histone peptide bearing H3K4me3 and H3K9me2 in cis [2]
1 | KIAA1718: KDM7 family Jumonji demethylase (protein, UniProt Q6ZMT4 1-941, looked up) Lysine-specific demethylase 7A: MAGAAAAVAAGAAAGAAAAAVSVAAPGRASAPPPPPPVYCVCRQPYDVNRFMIECDICKDWFHGSCVGVEEHHAVDIDLYHCPNCAVLHGSSLMKKRRNWHRHDYTEIDDGSKPVQAGTRTFIKELRSRVFPSADEIIIKMHGSQLTQRYLEKHGFDVPIMVPKLDDLGLRLPSPTFSVMDVERYVGGDKVIDVIDVARQADSKMTLHNYVKYFMNPNRPKVLNVISLEFSDTKMSELVEVPDIAKKLSWVENYWPDDSVFPKPFVQKYCLMGVQDSYTDFHIDFGGTSVWYHVLWGEKIFYLIKPTDENLARYESWSSSVTQSEVFFGDKVDKCYKCVVKQGHTLFVPTGWIHAVLTSQDCMAFGGNFLHNLNIGMQLRCYEMEKRLKTPDLFKFPFFEAICWFVAKNLLETLKELREDGFQPQTYLVQGVKALHTALKLWMKKELVSEHAFEIPDNVRPGHLIKELSKVIRAIEEENGKPVKSQGIPIVCPVSRSSNEATSPYHSRRKMRKLRDHNVRTPSNLDILELHTREVLKRLEMCPWEEDILSSKLNGKFNKHLQPSSTVPEWRAKDNDLRLLLTNGRIIKDERQPFADQSLYTADSENEEDKRRTKKAKMKIEESSGVEGVEHEESQKPLNGFFTRVKSELRSRSSGYSDISESEDSGPECTALKSIFTTEESESSGDEKKQEITSNFKEESNVMRNFLQKSQKPSRSEIPIKRECPTSTSTEEEAIQGMLSMAGLHYSTCLQRQIQSTDCSGERNSLQDPSSCHGSNHEVRQLYRYDKPVECGYHVKTEDPDLRTSSWIKQFDTSRFHPQDLSRSQKCIRKEGSSEISQRVQSRNYVDSSGSSLQNGKYMQNSNLTSGACQISNGSLSPERPVGETSFSVPLHPTKRPASNPPPISNQATKGKRPKKGMATAKQRLGKILKLNRNGHARFFV | inactive on H3K9me2 when H3K4me3 is present in cis | more selective toward H3K27me2 | – | – | –
2 | PHF2: KDM7 family Jumonji demethylase (protein, UniProt O75151 1-1096, looked up) Lysine-specific demethylase …: MATVPVYCVCRLPYDVTRFMIECDACKDWFHGSCVGVEEEEAPDIDIYHCPNCEKTHGKSTLKKKRTWHKHGPGQAPDVKPVQNGSQLFIKELRSRTFPSAEDVVARVPGSQLTLGYMEEHGFTEPILVPKKDGLGLAVPAPTFYVSDVENYVGPERSVDVTDVTKQKDCKMKLKEFVDYYYSTNRKRVLNVTNLEFSDTRMSSFVEPPDIVKKLSWVENYWPDDALLAKPKVTKYCLICVKDSYTDFHIDSGGASAWYHVLKGEKTFYLIRPASANISLYERWRSASNHSEMFFADQVDKCYKCIVKQGQTLFIPSGWIYATLTPVDCLAFAGHFLHSLSVEMQMRAYEVERRLKLGSLTQFPNFETACWYMGKHLLEAFKGSHKSGKQLPPHLVQGAKILNGAFRSWTKKQALAEHEDELPEHFKPSQLIKDLAKEIRLSENASKAVRPEVNTVASSDEVCDGDREKEEPPSPIEATPPQSLLEKVSKKKTPKTVKMPKPSKIPKPPKPPKPPRPPKTLKLKDGGKKKGKKSRESASPTIPNLDLLEAHTKEALTKMEPPKKGKATKSVLSVPNKDVVHMQNDVERLEIREQTKSKSEAKWKYKNSKPDSLLKMEEEQKLEKSPLAGNKDNKFSFSFSNKKLLGSKALRPPTSPGVFGALQNFKEDKPKPVRDEYEYVSDDGELKIDEFPIRRKKNAPKRDLSFLLDKKAVLPTPVTKPKLDSAAYKSDDSSDEGSLHIDTDTKPGRNARVKKESGSSAAGILDLLQASEEVGALEYNPSSQPPASPSTQEAIQGMLSMANLQASDSCLQTTWGAGQAKGSSLAAHGARKNGGGSGKSAGKRLLKRAAKNSVDLDDYEEEQDHLDACFKDSDYVYPSLESDEDNPIFKSRSKKRKGSDDAPYSPTARVGPSVPRQDRPVREGTRVASIETGLAAAAAKLSQQEEQKSKKKKSAKRKLTPNTTSPSTSTSISAGTTSTSTTPASTTPASTTPASTSTASSQASQEGSSPEPPPESHSSSLADHEYTAAGTFTGAQAGRTSQPMAPGVFLTQRRPSASSPNNNTAAKGKRTKKGMATAKQRLGKILKIHRNGKLLL | – | – | enzymatically inactive in vitro | remains inactive until it is phosphorylated by protein kinase A | cannot act on a single histone peptide bearing H3K4me3 and H3K9me2 in cis
